Experimental data taken from patent US20060134087A1, “ITI-D1 Kunitz domain mutants as hNE inhibitors” (Dyax Corp., priority 1988, published 2006).

Target: T1, hNE (Homo sapiens, UniProt P08246)
T1 sequence (P08246 30-267): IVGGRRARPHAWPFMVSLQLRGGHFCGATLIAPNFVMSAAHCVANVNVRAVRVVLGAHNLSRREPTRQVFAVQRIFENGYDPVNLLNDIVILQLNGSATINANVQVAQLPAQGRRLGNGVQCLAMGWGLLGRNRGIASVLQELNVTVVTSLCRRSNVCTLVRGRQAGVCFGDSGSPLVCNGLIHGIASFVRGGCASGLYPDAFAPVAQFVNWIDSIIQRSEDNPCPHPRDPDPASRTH
Test: Resistance to oxidative inactivation by Chloramine-T, residual hNE-inhibition activity
Format: physicochemical
Conditions: 20 minutes at RT
Protocol: At the end of the incubation period, the oxidation reactions were quenched by adding methionine to a final concentration of 4 mM. After a further 10 minute incubation, the quenched reactions were diluted and assayed for residual inhibitor activity in our standard hNE-inhibition assay.
Inhibitors were incubated in the presence of Chloramine-T at the molar ratios indicated for 20 minutes at RT. Oxidation reactions were quenched by adding methionine to a final concentration of 4 mM. Residual hNE-inhibition activity remaining in the quenched reactions is shown as a percentage of the activity observed with no added oxidant.

B1: Secretory Leucocyte Protease Inhibitor (protein)
chain: SGKSFKAGVCPPKKSAQCLRYKKPECQSDWQCPGKKRCCPDTCGIKCLDPVDTPNPTRRKPGKCPVTYGQCLMLNPPNFCEMDGQCKRDLKCCMGMCGKSCVSPVKA
Percent Residual hNE-Inhibitory Activity (Molar Ratio CHL-T:Inhibitor 0): 100%
Percent Residual hNE-Inhibitory Activity (Molar Ratio CHL-T:Inhibitor 0.29): 93%
Percent Residual hNE-Inhibitory Activity (Molar Ratio CHL-T:Inhibitor 1.2): 65%
Percent Residual hNE-Inhibitory Activity (Molar Ratio CHL-T:Inhibitor 2.4): 48%
Percent Residual hNE-Inhibitory Activity (Molar Ratio CHL-T:Inhibitor 5.9): 18%
Percent Residual hNE-Inhibitory Activity (Molar Ratio CHL-T:Inhibitor 12.): 15%
Percent Residual hNE-Inhibitory Activity (Molar Ratio CHL-T:Inhibitor .59): 82%
Percent Residual hNE-Inhibitory Activity (Molar Ratio CHL-T:Inhibitor .88): 73%
